Data taken from publication PMC10967632, “Anti-CD99 Antibody Therapy Triggers Macrophage-Dependent Ewing Cell Death In Vitro and Myeloid Cell Recruitment In Vivo” (Antibodies, 2024).

B1: soluble human CD99 (coated on the ELISA plate) (natural protein, UniProt P14209 23-122, looked up)
chain: DGGFDLSDALPDNENKKPTAIPKKPSAGDDFDLGDAVVDGENDDPRPPNPPKPMPNPNPNHPSSSGSFSDADLADGVSGGEGKGGSDGGGSHRKEGEEAD
notes: human CD99, soluble; May be the same CD99-Fc (G&P Biosciences) as m6
B2: NOA3, anti-CD99 monoclonal antibody (IgG1) (antibody, V domains shown)
VH: EVQLVQSGAEVKKPGESLKIACKGSGYSFSKYWIGWVRQMPGKGLEWMGIIYPGDSDTRYSPSFQGQVTISVDTSISTAYLQWSSLKASDTAIYYCARHLRNFGDAFDIWGQGTTVTVSS
VL: SYELTQPPSVSVSPGQTARITCSGDALPKQYAYWYQQKPGQSPVLVIYQDSKRPSGIPERFSGSNSGNTATLTISGTQAMDEADYYCQAWDSSTAFGGGTKLTVL
notes: constant region IgG1; IgG1; isolated by phage display

Key:
[1] = biological target: T1, Human His-tagged PILRα, extracellular domain (human, UniProt Q9UKJ1 20-197); test: ELISA; plate coated with 2 µg/mL human CD99, PILRα at 0.25 to 5 µg/mL, detected with an anti-PILRα antibody and HRP-bound secondary; settings: both partners purified
T1 construct: PILRα, human, extracellular domain; Band at 55 kDa on SDS-PAGE; also called human PILRα; source: Expi293F, transfected (pcDNA3.4), purified from the supernatant (HisPur Ni-NTA column)
T1 sequence (Q9UKJ1 20-197): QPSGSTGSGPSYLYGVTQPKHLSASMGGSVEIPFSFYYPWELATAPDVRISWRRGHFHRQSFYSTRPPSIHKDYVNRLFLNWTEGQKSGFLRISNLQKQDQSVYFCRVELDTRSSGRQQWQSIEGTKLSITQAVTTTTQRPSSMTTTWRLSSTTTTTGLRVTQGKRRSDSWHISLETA

[2] = biological target: T2, CD99 (or MIC2), 32 kDa type I membrane glycoprotein, on cells (Homo sapiens, UniProt P14209); test: flow cytometry on cells; Ewing sarcoma cells incubated with anti-CD99 IgG1 (2 µg/mL; NOA1 10 µg/mL; NOA2 also titrated) for one hour at 4 °C, then FITC-conjugated mouse anti-human IgG; CD99-negative Kelly neuroblastoma cells as negative control; settings: one partner purified
T2 construct: CD99 (MIC2), human, endogenous on the cell surface; also called Ewing CD99; macrophage CD99; source: endogenous, on human Ewing sarcoma cell lines (A673, TC32, CADO-ES1, TC71, TTC466); endogenous, on monocytes derived from human PBMCs

Binder	binding result [1]	binding result [2]
B1	binds	–
B2	–	binds
